{"source": "patent US20040102606A1", "about": "“Histone H2A -derived peptides useful in gene delivery” (priority 2003, published 2004)", "molecules": {"B1": {"name": "IL-2: mouse IL-2 expressed from pcDNA3.1 in transfected NXS2 cells (protein, UniProt P04351 21-169, looked up)", "Interleukin-2": "APTSSSTSSSTAEAQQQQQQQQQQQQHLEQLLMDLQELLSRMENYRNLKLPRMLTFKFYLPKQATELKDLQCLEDELGPLRHVLDLTQSKSFQLEDAENFISNIRVTVVKLKGSDNTFECQFDDESATVVDFLRRWIAFCQSIISTSPQ"}}, "system": "syngeneic mouse model of neuroblastoma", "assay": "Vaccination with histone H2A-transfected NXS2 cells, syngeneic mouse model of neuroblastoma", "type": "in vivo", "details": "subcutaneous immunization, histone H2A transient transfection; challenge with wild type tumor cells", "text": "The present invention also contemplates use of the H2A-derived peptides to facilitate gene delivery in vivo. This embodiment is based on the successful subcutaneous immunization in a novel syngeneic mouse model of neuroblastoma with a single chain IL-12 fusion protein that was mediated by histone H2A transient transfection.\nFor this approach with intact histone H2A and also extendable to the peptides of this invention, mouse IL-2 and scIL-12 were cloned into the expression vector pcDNA3.1 (Invitrogen, Carlsbad, Calif.) as previously described (Lode et al., Proc. Natl. Acad. Sci., USA, 95:2475-2480, 1998). […] Supercoiled DNA was quantitated on 0.9% agarose gels using Stratagene's Eagle Eye. […] production was quantified on a 24 hour basis in cell culture supernatants using an ELISA assay kit (Biosource, Camarillo, Calif.) and compared with standard preparations of these cytokines. […]\nNXS2 cells were tested routinely for the absence of mycoplasma contamination (Gen Probe® Mycoplasma Rapid Detection System, Fisher Scientific, Pittsburgh, Pa.). […] Cell viability was determined using trypan blue staining (Life Technologies, Gaithersburg, Md.), and the number of viable cells per experimental condition were determined. […]"}
{"molecule": "B1", "values": [{"measurement": "tumor immunity", "result": "no tumor immunity"}]}
